± gives the standard deviation of the averaged measurements.
B1: library; a variant is named by its letters at N, in order (parent)
chain: GCUGUCACCGAGAAACUGUGAAGUAUAUCUUAAACCUGGGCACUUAAAAGAUAUAUGGAGUUAGUAGUGCAACCUGCUCGGUCUGAUGAGUCCNNNNNNGGACGAAACAGC

What was measured:
cyclic di-GMP [1] = variants of: B1; experiment: FACS-Seq fitted mean relative fluorescence mCherry/BFP without ligand (log10 relative fluorescence); HEK293T; ligand: cyclic di-GMP (c-di-GMP-II aptamer); higher = higher reporter protein expression; settings: ligand present: no
Outline: (§1)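 Sorting into 6 bins by mCherry/BFP followed 48 h of incubation with or without ligand. The cells were enriched HEK293T libraries lentivirally bearing an mCherry reporter with the ribozyme switch and an EF1α-BFP marker, and bin genomic DNA was PCR-amplified, barcoded and sequenced on MiSeq. Fluorescence is the fitted normal mean of the bin counts. Means were fitted on log10(mCherry/BFP), scaled to five spiked-in control ribozymes.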

cyclic di-GMP [2] = variants of: B1; experiment: normalized RNA/DNA level without ligand (relative to sTRSVctl = 100) (log10 (% of sTRSVctl)); HEK293T; ligand: cyclic di-GMP (c-di-GMP-II aptamer); higher = less ribozyme self-cleavage, higher mRNA level; settings: reporter: mCherry (pCS4076), ligand present: no
Outline: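 HEK293T cells received ligand, where used, 1 h before being transfected with 4 µg per 6-well well of library plasmids encoding reporter-linked ribozyme switches. After 72 h, RNA was extracted with EDTA and sequenced. RNA level was derived from RNA reads per DNA read, normalized to a spiked-in non-cleaving sequence or the top sequences, then scaled and log-transformed. Values were ×100 then log10, the top set was 25 sequences, and the minimum was 100 DNA reads.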

cyclic di-GMP [3] = variants of: B1; experiment: FACS-Seq fitted mean relative fluorescence mCherry/BFP with ligand (log10 relative fluorescence); HEK293T; ligand: cyclic di-GMP (c-di-GMP-II aptamer); ligand concentration (+) FACS-Seq: 1 mM; higher = higher reporter protein expression; settings: ligand present: yes
Outline: as §1

cyclic di-GMP [4] = variants of: B1; experiment: normalized RNA/DNA level with ligand (relative to sTRSVctl = 100) (log10 (% of sTRSVctl)); HEK293T; ligand: cyclic di-GMP (c-di-GMP-II aptamer); ligand concentration (+) RNA-Seq: 1 mM; higher = less ribozyme self-cleavage, higher mRNA level; settings: reporter: mCherry (pCS4076), ligand present: yes
Procedure: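 Hammerhead (sTRSV) ribozyme switch libraries with a ligand aptamer grafted on stem I and a randomized N4-6 loop II, cloned into the 3' UTR of mCherry and transiently transfected into HEK293T cells; RNA-Seq 72 h post transfection with ligand added 1 h before transfection; RNA read count / plasmid DNA read count normalized to the non-cleaving sTRSVctl (x100), log10; sequences with >100 DNA reads. FACS-Seq: lentiviral library sorted into 6 bins after 48 h ligand, log-normal fit mean of mCherry/BFP scaled to controls. Printed sequences are partial switch sequences.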

Row | Variant | FACS-Seq fitted mean (log10) (cyclic di-GMP [1]) | normalized RNA/DNA level without ligand (log10) (cyclic di-GMP [2]) | FACS-Seq fitted mean (log10) (cyclic di-GMP [3]) | normalized RNA/DNA level with ligand (log10) (cyclic di-GMP [4])
1 | GCACAC | -0.421 ± 0.06 | 1.55 ± 0.034 | 0.00625 ± 0.1 | 1.69 ± 0.13
2 | GCACAA | -0.339 ± 0.051 | 1.41 ± 0.051 | 0.0543 ± 0.037 | 1.62 ± 0.11
3 | ACACGG | -0.501 ± 0.0065 | 1.53 ± 0.084 | -0.192 ± 0.029 | 1.69 ± 0.1
4 | ACACGA | -0.4507 ± 0.0033 | 1.37 ± 0.16 | -0.174 ± 0.061 | 1.55 ± 0.11
5 | GCAACA | -0.823 ± 0.12 | 1.55 ± 0.048 | -0.56 ± 0.014 | 1.75 ± 0.12
6 | GCAAAU | -0.773 ± 0.072 | 1.39 ± 0.071 | -0.484 ± 0.094 | 1.61 ± 0.12
7 | GCAAAC | -0.826 ± 0.056 | 1.39 ± 0.064 | -0.0625 ± 0.35 | 1.57 ± 0.085
8 | GCAAAG | -0.5587 ± 0.0035 | 1.41 ± 0.099 | -0.278 ± 0.024 | 1.62 ± 0.087
9 | CCACUU | -0.246 ± 0.072 | 1.5 ± 0.069 | -0.0246 ± 0.1 | 1.69 ± 0.078
10 | CCACUA | -0.725 ± 0.038 | 1.43 ± 0.13 | -0.348 ± 0.019 | 1.66 ± 0.067
11 | UAUUCU | -0.432 ± 0.069 | 1.7467 ± 0.0014 | -0.275 ± 0.051 | 1.89 ± 0.094
12 | ACAGCG | -0.358 ± 0.013 | 1.75 ± 0.0045 | -0.079 ± 0.031 | 1.86 ± 0.1
13 | UCACUU | -0.404 ± 0.091 | 1.611 ± 0.0095 | -0.0521 ± 0.15 | 1.77 ± 0.14
14 | UCACCA | 0.0707 ± 0.26 | 1.694 ± 0.0047 | 0.366 ± 0.022 | 1.84 ± 0.14
15 | UAUUAC | -0.992 ± 0.17 | 1.77 ± 0.039 | -0.849 ± 0.071 | 1.87 ± 0.095
16 | CCAGUA | -0.229 ± 0.044 | 1.5 ± 0.092 | 0.134 ± 0.047 | 1.73 ± 0.12
17 | CCACAU | 0.0115 ± 0.077 | 1.54 ± 0.052 | 0.346 ± 0.031 | 1.76 ± 0.11
18 | CAUUAU | -0.4943 ± 0.0018 | 1.54 ± 0.098 | -0.353 ± 0.08 | 1.71 ± 0.1

— the supplement of paper PMC6757056
